# Test results taken from the nanobody polyreactivity screen of Harvey et al. (2022).
# Assay: yeast display, Sf9 membrane polyspecificity reagent, FACS + sequencing; frameworks hold sequencing errors
# Procedure, shortened: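 Nanobodies came from a synthetic yeast display library in Saccharomyces cerevisiae BJ5465, induced with galactose for 36–48 hours and stained for 1 hour at 4 °C with 10% biotinylated, detergent-solubilized Sf9 membrane reagent. Cells were enriched on streptavidin microbeads and then FACS-sorted, with low and high (top ~1%) gates set on anti-HA fluorescence for expression and streptavidin fluorescence for reagent binding. Each polyreactivity label reflects the gate a clone came from. Genes were amplified by colony PCR, sequenced by MiSeq 2 × 250 and filtered by CDR length.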
row,Sequence,polyreactivity (PSR sort gate)
1,QVQLVESGGGLVQAGGSLRLSCAASGSTFGGYAMGWYRQAPGKERELVAAISGSGVRTYYADSVKGRFTISRDNAKNTVYLQMNSLKPEDTAVYYCAKRVRYPGDRYYYWGQGTQVTVSS,high polyreactivity
2,QVQLVESGGGLVQAGGSLRLSCAASGSTFGGYAMGWYRQAPGKERELVAAISKSGGSTYYADSVKGRFTISRDNAKNTVYLQMNSLKPEDTAVYYCNAPYKRSPYNYWGQGTQVTVSS,high polyreactivity
3,QVQLVESGGGLVQAGGSLRLSCAASGSTFGGYTMGGYRQAPGKERELVADITSSGSTNYADSLKGRFTISRDNAKNSVYLQMNSLKPEDTAVYYCAVRTYPGRFWYWGVDMVYWGQGTQVTVSS,low polyreactivity
4,QVQLVESGGGLVQAGGSLRLSCAASGSTFGGYTMGWYRQAPGKERELVADITSSGSTNYADSLKGRFTISRDNAKNTVYLQMNSLKPEDTAVYYCAVRTYPGRFWYWGVDMDYWGQGTQVTVSS,low polyreactivity
5,QVQLVESGGGLVQAGGSLRLSCAASGSTFGHNAMGWYRQAPGKERELVAAIDSGDGTTYADSVKGRFTISRDNAKNTVYLQMNSLKPEDSAVYYWNVDLTTVGLWYYYRPGYDFWGQGTQVTVSS,low polyreactivity
6,QVQLVESGGGLVQAGGSLRLSCAASGSTFGHYAMGWSRQAPGKERELVARITSDDSTSYADSVKGRFTISRDNAKNTVYLQMNSLKPEDTAVDYCAARYYSYSWHPARYQGRYSWGQGTQVTVSS,high polyreactivity
7,QVQLVESGGGLVQAGGSLRLSCAASGSTFGHYAMGWYIQAPGKERELVAGITDTDNHELRRLCEGRFTISRDNAKNTVYLQMNSLKPEDTAVYYCNADDTYYPLCGITGYDYWGQGTQVTVSS,low polyreactivity
8,QVQLVESGGGLVQAGGSLRLSCAASGSTFGHYAMGWYRPAPGKERELVAGITDTDNHELRRLCEGRFTISRDNAKNTVYLQMNSLKPEDTAVYYCIADDTYYPLGGITGYDDWGQGTQVTVSS,low polyreactivity
9,QVQLVESGGGLVQAGGSLRLSCAASGSTFGINAMGWYRQAPGKERELVAAISRRGGSTYYADSVKGRFTISRDNAKNSVYLQMNSLKPEDTAVYYCAARYRNHQYDYWGQGTQVTVSS,high polyreactivity
10,QVQLVESGGGLVQAGGSLRLSCAASGSTFGINAMGWYRQAPGKERELVASITRRGGSTYYADSVKGRFTISRDNAKNTVYLQMNSLKPEDTAVYYCNKTYRYGTPLYDYWGQGTQVTVSS,high polyreactivity
11,QVQLVESGGGLVQAGGSLRLSCAASGSTFGINDMGWSRQAPGKEREFVAAISSTTDSTRYADSVKGRFTISRDNAKNTVYLQMNSLKPEDTAVYYCAAAPQFTFGVGYWGQGTQVTVSS,low polyreactivity
12,QVQLVESGGGLVQAGGSLRLSCAASGSTFGIYAMGWYRQAPGKERELVAAIRKNGGSTYYADSVKGRFTISRDNAKNTVYLQMNSLKPEDTAVYYCNADYWIYPSYDYWGQGTQVTVSS,low polyreactivity
13,QVQLVESGGGLVQAGGSLRLSCAASGSTFGIYAMGWYRQAPGKERELVAAISRSGDSTYYADSVKGRFTISRDNAKNTVYLQMNSLKPEDTAVYYCAADSFRLRYWAVTTHRVQYDYWGQGTQVTVSS,low polyreactivity
14,QVQLVESGGGLVQAGGSLRLSCAASGSTFGKNALGWYRQAPGKERELVAAITRRGGSTNYADSVKGRFTISRDNAKNTVYLQMNSLKPEDTAVYYCNAGYGYGYPKYDYWGQGTQVTVSS,high polyreactivity
15,QVQLVESGGGLVQAGGSLRLSCAASGSTFGKNAMGWYRPAPGKERELVAAITSSGGRTYYADSVKGRFTISRDNAKNTVYLQMNSLKPEDTAVYYCNAVTRRRSLGPWPVEYDYWGQGTQVTVSS,high polyreactivity
16,QVQLVESGGGLVQAGGSLRLSCAASGSTFGKYAMGWYRQAPGKERELVASISRSGASTYYADSVKGRFTISRDNAKNTVYLQMNSLKPEDTAVYYCNKARNPEGYWRYDYWGQGTQVTVSS,high polyreactivity
17,QVQLVESGGGLVQAGGSLRLSCAASGSTFGKYAMGWYRQAPGKERELVATITVSGGNTNYADSVKGRFTISRDNAKNTVYLQMNSLKPEDTAVYYCNAGGRYHAPSGDYWGQGTQVTVSS,low polyreactivity
18,QVQLVESGGGLVQAGGSLRLSCAASGSTFGLNTMGWYRQAPGKERELVAGITWSGGTTYYADSVKGRFTISRDNAKNTVYLQMNSLKPEDTAVSYCAAAVSDHYWYSRAYYYWGQGTQVTVSS,high polyreactivity
19,QVQLVESGGGLVQAGGSLRLSCAASGSTFGLYVMGWYRQAPGQERELVAAISRRGGSTYYADSVKGRFTSSRDNAKNTVYLQMNSLKPEDTAVYYCNTYYRGGPYDVAYDYWGQGTQVTVSS,high polyreactivity
20,QVQLVESGGGLVQAGGSLRLSCAASGSTFGNNAMGWYRQAPGKERELVATIDDTTVSTNYADSVKGRFTISRDNAKNSVYLQMNSLKPEDTAVYYCAADDVDGSPYDYWGQGTQVTVSS,low polyreactivity
21,QVQLVESGGGLVQAGGSLRLSCAASGSTFGPNAMGWYRQAPGKERELVAAINTRGGSTYYADSVKGRFTISRDNAKNTVYLQMNSLKPEDTAVYYCAAEYVVWYLDRFNYWGQGTQVTVSS,high polyreactivity
22,QVQLVESGGGLVQAGGSLRLSCAASGSTFGPNAMGWYRQAPGNERELVAAITWSGDSTYYADSVKGRFTISRDNAKNTVYLQMNSLKPEDTAVYYCNTDRNVWYAGYDYWGQGTQVSVSS,low polyreactivity
23,QVQLVESGGGLVQAGGSLRLSCAASGSTFGPYAMGWYRPAPGKERELVADITSSDGSTYYADSVKGRFTISRDNAKNSVYFHLNSLKREDTAVYYCNADYRYIWTYWGWTIYDYWGQGTQVTVSS,high polyreactivity
24,QVQLVESGGGLVQAGGSLRLSCAASGSTFGPYAMGWYRQAHGKVRELVAAITESGDSTYYADSVKGRFTISRDNAKNTVYLQMNSLKPEDTAVYYCAAEFYGDKMDYWGQGTQVTVSS,low polyreactivity
25,QVQLVESGGGLVQAGGSLRLSCAASGSTFGPYAMGWYRQAPGKERELVAAITKSGGRTYYADSVKGRFTISRDNAKNTVYLQMNSLKPEDTAVYYCAAYGSVGLEYWGQGTQVTVSS,high polyreactivity
26,QVQLVESGGGLVQAGGSLRLSCAASGSTFGPYAMGWYRQAPGKERELVAAITSSGGTTYYADSVKGRFTISRDNAKNTVYLQMNSLKPEDTAVYYCNTRRHGWKGVAYDYWGQGTQVTVSS,low polyreactivity
27,QVQLVESGGGLVQAGGSLRLSCAASGSTFGPYAMGWYRQAPGKERELVATITRNGGSTYYADSVKGRFTISRDNAKNTVYLQMNILKPEDTAVYYCNAEGRWSSFTQRMDYWGQGTQVTVSS,low polyreactivity
28,QVQLVESGGGLVQAGGSLRLSCAASGSTFGPYTMGWYRQAAGKERELVAAITGGGDSTYYADSVKGRFTISRDNAKNTVYLQMNSLKPEDTAVYYCAAKKPTTRMGYWGQGTQVTVSS,low polyreactivity
29,QVQLVESGGGLVQAGGSLRLSCAASGSTFGQYAMGWYRQAPGKERELVAAISTSGGSTYYADSVKGRFTISRDNAKNTVYLQMNSLKPEDTAVYYCAVDRLPSYPTGFDYWGQGTQVTVSS,high polyreactivity
30,QVQLVESGGGLVQAGGSLRLSCAASGSTFGRKAMAWYRQAPGKEMELVAVISKSGGSTYYADTVKGRFTISRDNAKNTVYLQMNSLKPEDTAVYYCAASLKYRRRMGYWGQGTQVTVSS,high polyreactivity
